# Changes are numbered by the printed parent chain.
# B1: F03: KnotBody with alternative 5-3 framing of EETI-II, VL CDR2 (protein)
# chain: QSVLTQPPSVSEAPRQRVTITCSGSSSNIGNNAVNWYQQLPGRAPKLLIYAAGGCGPNGFCGSGGDGGVCPRILMRCKQDSDCLAGCGAHSGIPERFSGSKSGTSASLAISGLRSEDEADYYCAAWDDSLNGWVFGGGTKVTVLGQP
# modifications: F03 (67972)
# notes: KnotBody with alternative 5-3 framing of EETI-II, VL CDR2
# B2: KB_A07_HsTx1 (antibody, V domains shown)
# VH: EVQLVESGGGLVRPGGSLRLSCAASGFTFSSYAMSWVRQAPGKGLEWVSAISGSGGSTYYADSVKGRFTISRDNTKNSLYLQMTSLRADDTAFYYCVKDFGPGYGTGWFDYWGPGTLVTVSS
# VL: DIQMTQSPSSLSASVGDRVTITCRASQSISSYLNWYQQKPGKAPKLLIYAAGVASCRTPKDCADPCRKETGCPYGKCMNRKCKCNRCSRSGVPSRFSGSGSGTDFTLTISSLQPEDFATYYCQQGASPPYTFGQGTKVEIKR
# B3: KB_A12_ADWX1: ADWX-1 in VL CDR2 of KB_A12, IgG (antibody, V domains shown)
# VH: B2 VH
# VL: QSVLTQPPSVSEAPRQRVTITCSGSSSNIGNNAVNWYQQLPGKAPKLLIYAAGRVGINVKCKHSRQCLKPCKDAGMRFGKCTNGKCHCTPKANSGVSDRFSAAKSGTSASLAINGLRSEDEADYYCAAWDDSLNGYVFGTGTKLTVLG
# B4: C09: KnotBody with alternative 5-3 framing of EETI-II, VL CDR1 (protein)
# chain: QSVLTQPPSVSEAPRQRVTITCGGKRCGPNGFCGSGSDGGVCPRILMRCKQDSDCLAGCTSNWYQQKPGQAPVLVVQDDSVRPSGIPERFSGSNSGNTATLTISRVEAGDGADYYCQVWDISSDLGVFGGGTKLTVLGQP
# modifications: C09 (9820)
# notes: KnotBody with alternative 5-3 framing of EETI-II, VL CDR1
# B5: E03: KnotBody with alternative 5-3 framing of EETI-II, VL CDR2 (protein)
# chain: QSVLTQPPSVSEAPRQRVTITCSGSSSNIGNNAVNWYQQLPGKAPKLLIYAAGGCGPNGFCGSGSDGGVCPRILMRCKQDSDCLAGCGRNSGIPERFSGSKSGHTATLTISRVEAGDEADYYCQVWDSSSDHVLFGGGTKLTVLGQP
# modifications: E03 (82495)
# notes: as for B1
# B6: F07: KnotBody with alternative 5-3 framing of EETI-II, VL CDR2 (protein)
# chain: QSVLTQPPSVSEAPRQRVTITCSGSSSNIGNNAVNWYQQLPGKAPKLLIYAAGGCGPNGFCGSGSDGGVCPRILMRCKQDSDCLAGCGGQSGVPDRFSGSKSGTSASLAISRLQSEDEADYYCAAWDDSLNAYVFGTGTKVTVLGQP
# modifications: F07 (72824)
# notes: as for B1
# B7: E01: KnotBody with alternative 5-3 framing of EETI-II, VL CDR2 (protein)
# chain: B6 chain with G89I, Q90H, P94S, G99D, R112G, A132G, V141L
# modifications: E01 (127988)
# notes: as for B1
# B8: E09: KnotBody with alternative 5-3 framing of EETI-II, VL CDR2 (protein)
# chain: B6 chain with G89T, V93I, D95E, R112G, Q114R, N131R, K140Q, V141L
# modifications: E09 (70274)
# notes: as for B1
# B9: E08: KnotBody with alternative 5-3 framing of EETI-II, VL CDR2 (protein)
# chain: B6 chain with G89I, V93I, D95E, R112G, Q114R, S129N, N131S, A132G, V141L
# modifications: E08 (121047)
# notes: as for B1
# B10: E05: KnotBody with alternative 5-3 framing of EETI-II, VL CDR2 (protein)
# chain: B6 chain with G89A, V93I, D95E, R112G, D120H, A132G
# modifications: E05 (118631)
# notes: as for B1
# B11: F01: KnotBody with alternative 5-3 framing of EETI-II, VL CDR2 (protein)
# chain: DIQMTQSPSSLSASVGDRVTITCRASQSISSYLNWYQQKPGKAPKLLIDAAGECGPNGFCGSGSDGGVCPRINMRCKQDSDCLAGCGRDSGVPSRFSGSGSGTDFTLTISSLQPEDFATYYCQQSYSTPWTFGQGTKVEIKRT
# modifications: F01 (101798)
# notes: as for B1
# Tests used:
# [1] = system: trypsin; test: Phage TRF binding assay on immobilised biotinylated trypsin (monoclonal phage ELISA); conditions: EETI-II in 5-3 frame, value in brackets after clone name
# Experimental: Phage display technology facilitates isolation of binders to any given target from large combinatorial repertoires based on proteins and peptides that can be presented on the surface of filamentous phage^105. In order to isolate functional knottin-antibody fusions from the KnotBody libraries multiple rounds of phage display selections on trypsin (cognate antigen for the EETI-II donor) were carried out. Phage particles were prepared by rescuing KnotBody libraries using trypsin cleavable helper phage ^102,106Two rounds of phage display selections were performed on 10 µg/ml biotinylated trypsin immobilised on Streptavidin (for Round-1) or Neutravidin (for round-2) coated Maxisorp™ immunotubes (Thermo Scientific, Cat No. 444202). In both rounds of selection, phage libraries were pre-incubated with streptavidin coated paramagnetic beads (Thermo Fisher Scientific, Cat. No. 11205D). These beads were removed prior to the addition the phage to the antigen tubes to limit the streptavidin binders entering the selection. Polyclonal phage preparations from round-2 selection outputs were analysed for trypsin binding using a time resolved fluorescence (TRF) binding assay. In this assay, polyclonal phage binding to biotinylated trypsin immobilised on neutravidin (Thermo Fisher Scientific, Cat. No 31000) coated Maxisorp™ plates (Thermo Scientific, Cat. No. 437111) was detected using a mouse anti-M13 antibody (GE Healthcare, Cat. No. 27-9420-01) followed by europium conjugated anti-mouse antibody (Perkin Elmer, Cat. No. AD0124).
# In order to identify monoclonal KnotBodies with desired binding characteristics, 94 individual clones derived from 2 rounds of selection using EETI-II CDR1 or CDR2 libraries were picked into 96 well culture plates and phage were prepared from each clone. Methods for screening by monoclonal phage ELISA are known in the art^107. […] Clones with >3x binding signal above background were picked as positive clones and sequenced to identify unique clones. 14 and 42 unique binders were identified from EETI-II CDR1 and EETI-II CDR2 libraries respectively (Table 1). 18 binders from the EETI-II CDR2 library and 3 binders from the EETI-II-CDR1 library were chosen for further characterisation based on their VL and linker sequence diversity. These binders were assigned new clone identification numbers (Table 2).
# The trypsin binding capability of EETI-II is attributed to proline (Pro3) and arginine (Arg4) residues present in its loop1 (GCPRILMRC; SEQ ID NO: 68). […] Monoclonal phage was prepared from the 21 selected clones and their mutant equivalents. […] Replacement of the trypsin-binding residues of EETI-II abolished the ability of all KnotBody clones to bind to trypsin (Table 3). In order to confirm that the loss of trypsin binding was not due to reduced expression or display of pIII fusion phage was prepared from 11 (randomly chosen) KnotBodies and their GlyAla variants were analysed on a western blot using an antibody which recognises the product of gene 3 (pIII) using an anti-pIII antibody (MoBiTec GmbH) (FIG. 6).
# Bovine antibodies have been described with natural ultra-long VH CDR3s containing a solvent exposed double stranded antiparallel sheet approximately 20 A° in length (referred to as the stalk) presenting a folded domain stabilised by 3 disulfide bonds (referred to as the Knob)^10. Zhang and colleagues have shown that the Knob domains of these cow ultra-long VH CDR3 antibodies (ULVC-Ab) can be replaced with other folded proteins such as erythropoietin^13. In this example, we assess the ability of a cow ULVC-Ab to present functional knottin fusions on phage in comparison with a KnotBody. In order to create a Knottin-cow UCLA fusion, the sequence between the first and the last cysteines of the knob region of the Cow ULVC-Ab BLV1H12 was replaced with the sequence of the trypsin binding knottin; EETI-II (EETI-II cow ULVC-Ab). A gene fragment encoding this construct was synthesised (Integrated DNA technologies, Table 21). […]
# [2] = target: T1, human Kv1.3 (huKv1.3) (Homo sapiens, UniProt P22001); test: QPatch automated patch-clamp, CHO cells stably expressing human Kv1.3 (Examples 19-21); type: cell-based; conditions: huKv1.3, four-point curves of FIG. 32, Table E19; read-out: IC50
# T1 construct: host or cells: CHO
# Experimental: The effect of these KnotBodies on cells expressing human Kv1.3 (huKv1.3) channel was assessed using the QPatch automated patch-clamp platform (Sophion, Ballerup, Denmark). For the testing of Kv1.3 ion channel currents, CHO cells stably expressing human Kv1.3 (GenBank accession number NM_002232.2; cell line catalogue number CT6133, Charles River Discovery, Cleveland, USA) were subjected to a QPatch electrophysiology assay in the presence or absence of the KnotBody fusions or the antibody isotypes (negative controls). Internal and external physiological solutions were freshly prepared prior to the assay. The extracellular solution contained 145 mM NaCl, 4 mM KC1, 2 mM CaC12, 1 mM MgC12, 10 mM HEPES and 10 mM glucose; the pH was adjusted to 7.4 with NaOH; the osmolarity was ~ 305 mOsm/L. The intracellular solution contained: KF (120 mM), KC1 (20 mM), HEPES (10 mM) EGTA (10 mM); the pH was adjusted to 7.2 with KOH; osmolarity was ~ 300 mOsm/L.
# (§1) A series of depolarising voltage (channel activating) pulses were used to monitor the channel currents upon adding control (extracellular solution) to define a control baseline of current activity. To these measured control currents four, ascending concentrations of KnotBodies (including KB_A12_ShK and KB_A12_KTX as previously described in Example 8) or parental antibody isotypes (control molecules) were applied to the external bathing solution. KnotBodies KB_A12 and KB_A07 (EETI-II fusions) were used as isotype controls for the testing. From a holding voltage of -80 mV a depolarising, activating voltage pulses of +30 mV were applied for 300 ms, every 10 seconds. The elicited, maximum outward current values measured during the activating step for each solution exchange period, averaged (n = 3 - 6 for each concentration applied) and plotted as concentration-response curves (see FIG. 32). From these concentration-response curves IC50 values were calculated.
# For the testing of Kv1.1 and Kv1.3, CHO-S expressing huKv1.1 (described above) or CHO cells stably expressing huKv1.3 (Charles River Lab) were analysed using the QPatch electrophysiology assay in the presence or absence of the KnotBody fusions. Internal and external physiological solutions were freshly prepared prior to the assay. The extracellular solution contained 145 mM NaCl, 4 mM KC1, 2 mM CaC12, 1 mM MgC12, 10 mM HEPES and 10 mM glucose; the pH was adjusted to 7.4 with NaOH; the osmolarity was ~ 305 mOsm/L. The intracellular solution contained: KF (120 mM), KC1 (20 mM), HEPES (10 mM) EGTA (10 mM); the pH was adjusted to 7.2 with KOH; osmolarity was ~ 300 mOsm/L.
# as §1, with “(including previously described” for “(including”, “KB_A12_KTX” for “KB_A12_KTX as previously”, “[…]” for “+30 mV”, “33).” for “32).”, “calculated (see Table E20).” for “calculated.”
# For the testing of Kv1.1 and Kv1.3, CHO-S expressing huKv1.1 (see Example 20 and below) or CHO cells stably expressing huKv1.3 (Charles River Lab) were analysed using the QPatch electrophysiology assay in the presence or absence of the KnotBody fusions - see details in Examples 19 and 20.
# T1 sequence (P22001 whole entry): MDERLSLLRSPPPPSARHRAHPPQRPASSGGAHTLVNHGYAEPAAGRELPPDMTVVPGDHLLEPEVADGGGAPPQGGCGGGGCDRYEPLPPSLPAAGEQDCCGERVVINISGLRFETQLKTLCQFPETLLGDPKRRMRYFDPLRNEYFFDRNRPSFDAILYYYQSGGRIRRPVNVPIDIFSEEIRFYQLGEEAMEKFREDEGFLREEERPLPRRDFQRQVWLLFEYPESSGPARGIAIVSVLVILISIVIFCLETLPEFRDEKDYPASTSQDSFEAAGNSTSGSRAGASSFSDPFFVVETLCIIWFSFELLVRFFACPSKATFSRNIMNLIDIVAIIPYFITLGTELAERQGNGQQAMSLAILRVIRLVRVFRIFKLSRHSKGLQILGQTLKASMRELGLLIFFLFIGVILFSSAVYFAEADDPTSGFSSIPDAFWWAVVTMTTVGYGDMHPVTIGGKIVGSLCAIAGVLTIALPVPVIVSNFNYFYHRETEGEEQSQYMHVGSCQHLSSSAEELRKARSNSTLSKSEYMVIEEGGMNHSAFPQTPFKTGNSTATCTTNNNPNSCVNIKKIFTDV
Molecule,ELISA signal from monoclonal phage ELISA [1],IC50 [2]
B1,F03 (67972),
B2,,4.7 nM
B3,,270 nM
B4,C09 (9820),
B5,E03 (82495),
B6,F07 (72824),
B7,E01 (127988),
B8,E09 (70274),
B9,E08 (121047),
B10,E05 (118631),
B11,F01,
